Results reported in paper PMC9482650, “Quantitative fragmentomics allow affinity mapping of interactomes” (Nature Communications, 2022).

T1: APBA2_1, Q99767
T1 sequence (Q99767 563-664, limits assumed, looked up): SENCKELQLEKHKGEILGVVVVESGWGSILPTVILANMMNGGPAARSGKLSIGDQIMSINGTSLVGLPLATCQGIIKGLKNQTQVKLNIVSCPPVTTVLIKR

T2: SHANK1, Q9Y566
T2 sequence (Q9Y566 658-767, limits assumed, looked up): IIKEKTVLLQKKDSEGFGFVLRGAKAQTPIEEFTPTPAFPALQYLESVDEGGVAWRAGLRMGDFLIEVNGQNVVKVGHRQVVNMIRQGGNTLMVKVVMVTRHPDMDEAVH

T3: FRMPD1, Q5SYB0
T3 sequence (Q5SYB0 52-145, limits assumed, looked up): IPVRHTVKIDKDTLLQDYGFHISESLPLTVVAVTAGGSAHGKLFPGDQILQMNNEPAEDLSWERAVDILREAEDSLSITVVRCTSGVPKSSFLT

T4: SYNJ2BP, P57105
T4 sequence (P57105 8-110, limits assumed, looked up): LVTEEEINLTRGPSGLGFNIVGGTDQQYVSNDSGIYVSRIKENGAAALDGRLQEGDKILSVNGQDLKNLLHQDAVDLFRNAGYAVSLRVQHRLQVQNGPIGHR

T5: SNTB1, Q13884
T5 sequence (Q13884 107-205, limits assumed, looked up): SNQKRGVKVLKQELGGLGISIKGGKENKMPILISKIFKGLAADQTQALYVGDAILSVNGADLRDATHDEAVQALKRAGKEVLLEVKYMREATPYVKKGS

T6: ARHGAP21, Q5T5U3
T6 sequence (Q5T5U3 45-169, limits assumed, looked up): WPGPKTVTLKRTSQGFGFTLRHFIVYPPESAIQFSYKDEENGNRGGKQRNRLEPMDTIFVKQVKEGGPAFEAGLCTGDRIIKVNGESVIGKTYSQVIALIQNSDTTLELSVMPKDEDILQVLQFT

T7: GRIP1_5, Q9Y3R0
T7 sequence (Q9Y3R0 568-668, limits assumed, looked up): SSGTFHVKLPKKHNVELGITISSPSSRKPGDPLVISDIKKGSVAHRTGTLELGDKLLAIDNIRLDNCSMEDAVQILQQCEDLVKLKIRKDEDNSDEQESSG

T8: DLG3_2, Q92796
T8 sequence (Q92796 221-321, limits assumed, looked up): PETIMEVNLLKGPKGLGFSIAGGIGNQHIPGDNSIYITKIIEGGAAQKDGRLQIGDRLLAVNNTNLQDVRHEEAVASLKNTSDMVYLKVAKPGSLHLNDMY

T9: PDZD7_3, Q9H5P4
T9 sequence (Q9H5P4 857-944, limits assumed, looked up): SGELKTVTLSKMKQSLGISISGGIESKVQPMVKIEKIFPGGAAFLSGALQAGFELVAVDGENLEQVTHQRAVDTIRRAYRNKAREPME

T10: APBA3_1, O96018
T10 sequence (O96018 389-490, limits assumed, looked up): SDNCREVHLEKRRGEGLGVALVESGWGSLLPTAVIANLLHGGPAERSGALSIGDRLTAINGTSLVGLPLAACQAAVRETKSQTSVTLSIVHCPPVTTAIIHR

T11: DLG3_1, Q92796
T11 sequence (Q92796 125-227, limits assumed, looked up): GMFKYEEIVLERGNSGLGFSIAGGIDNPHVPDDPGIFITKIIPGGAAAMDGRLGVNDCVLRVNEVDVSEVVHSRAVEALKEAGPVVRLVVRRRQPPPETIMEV

T12: TJP3_3, O95049
T12 sequence (O95049 375-456, limits assumed, looked up): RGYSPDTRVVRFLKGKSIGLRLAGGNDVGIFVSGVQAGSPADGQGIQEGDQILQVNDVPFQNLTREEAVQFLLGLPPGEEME

T13: DVL3, Q92997
T13 sequence (Q92997 244-331, limits assumed, looked up): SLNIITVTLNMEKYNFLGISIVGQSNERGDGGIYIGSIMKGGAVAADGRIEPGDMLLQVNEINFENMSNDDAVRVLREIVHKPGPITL

B1: CSPG4, Q6UVK1 (peptide)
chain: PALKNGQYWV
B2: SLC17A1, Q14916 (peptide)
chain: WAKEKQHTRL
B3: LPAR1, Q92633 (peptide)
chain: GVHSNDHSVV

Each binder was assayed against T1, APBA2_1, Q99767 (assay: holdup assay). Conditions: plain residues with an end cap or a label only (N-terminal biotin on a linker: ado-ado).
Set-up: key: below the threshold = too weak to quantify, mostly under pKd 3.1 to 4

Row | pKd | Binder
1 | below the threshold | B1
2 | below the threshold | B2
3 | below the threshold | B3

The binders below were run against T2, SHANK1, Q9Y566 (assay: holdup assay). Conditions: plain residues with an end cap or a label only (N-terminal biotin on a linker: ado-ado).
Set-up: key: below the threshold = too weak to quantify, mostly under pKd 3.1 to 4

Row | pKd | Binder
4 | below the threshold | B1
5 | 4.91 | B2
6 | below the threshold | B3

These binders were tested against T3, FRMPD1, Q5SYB0 (assay: holdup assay). Conditions: plain residues with an end cap or a label only (N-terminal biotin on a linker: ado-ado).
Set-up: key: below the threshold = too weak to quantify, mostly under pKd 3.1 to 4

Row | pKd | Binder
7 | below the threshold | B1
8 | below the threshold | B2
9 | below the threshold | B3

What follows are binders tested against SCRIB_2, Q14160 (assay: holdup assay). Conditions: plain residues with an end cap or a label only (N-terminal biotin on a linker: ado-ado).
Chain of SCRIB_2, Q14160 (Q14160 857-960): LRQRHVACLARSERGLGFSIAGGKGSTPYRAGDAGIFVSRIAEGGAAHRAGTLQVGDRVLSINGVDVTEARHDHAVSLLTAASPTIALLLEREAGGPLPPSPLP
Set-up: key: below the threshold = too weak to quantify, mostly under pKd 3.1 to 4

Row | pKd | Binder
10 | below the threshold | B1
11 | below the threshold | B2
12 | below the threshold | B3

What follows are binders tested against Inadl_4, Q8NI35 (assay: holdup assay). Conditions: plain residues with an end cap or a label only (N-terminal biotin on a linker: ado-ado).
Chain of Inadl_4, Q8NI35 (Q8NI35 547-651): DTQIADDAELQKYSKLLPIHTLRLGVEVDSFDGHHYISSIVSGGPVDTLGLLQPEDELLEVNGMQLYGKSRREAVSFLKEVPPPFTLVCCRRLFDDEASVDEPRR
Set-up: key: below the threshold = too weak to quantify, mostly under pKd 3.1 to 4

Row | pKd | Binder
13 | below the threshold | B1
14 | below the threshold | B2
15 | below the threshold | B3

What follows are binders tested against T4, SYNJ2BP, P57105 (assay: holdup assay). Conditions: plain residues with an end cap or a label only (N-terminal biotin on a linker: ado-ado).
Set-up: key: below the threshold = too weak to quantify, mostly under pKd 3.1 to 4

Row | pKd | Binder
16 | below the threshold | B1
17 | below the threshold | B2
18 | 3.7 | B3

These binders were tested against GRID2IP_2, A4D2P6 (assay: holdup assay). Conditions: plain residues with an end cap or a label only (N-terminal biotin on a linker: ado-ado).
Chain of GRID2IP_2, A4D2P6 (A4D2P6 272-370): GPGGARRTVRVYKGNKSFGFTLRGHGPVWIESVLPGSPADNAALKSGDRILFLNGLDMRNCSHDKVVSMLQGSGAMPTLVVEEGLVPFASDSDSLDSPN
Set-up: key: below the threshold = too weak to quantify, mostly under pKd 3.1 to 4

Row | pKd | Binder
19 | 3.75 | B1
20 | 4.25 | B2
21 | 3.96 | B3

These binders were tested against DLG1_2, Q12959 (assay: holdup assay). Conditions: plain residues with an end cap or a label only (N-terminal biotin on a linker: ado-ado).
Chain of DLG1_2, Q12959 (Q12959 314-412): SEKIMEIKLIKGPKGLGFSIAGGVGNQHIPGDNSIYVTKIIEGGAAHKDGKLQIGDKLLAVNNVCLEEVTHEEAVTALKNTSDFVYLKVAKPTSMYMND
Set-up: key: below the threshold = too weak to quantify, mostly under pKd 3.1 to 4

Row | pKd | Binder
22 | below the threshold | B1
23 | 4.27 | B2
24 | 3.99 | B3

What follows are binders tested against T5, SNTB1, Q13884 (assay: holdup assay). Conditions: plain residues with an end cap or a label only (N-terminal biotin on a linker: ado-ado).
Set-up: key: below the threshold = too weak to quantify, mostly under pKd 3.1 to 4

Row | pKd | Binder
25 | below the threshold | B1
26 | 3.82 | B2
27 | 3.69 | B3

These binders were tested against T6, ARHGAP21, Q5T5U3 (assay: holdup assay). Conditions: plain residues with an end cap or a label only (N-terminal biotin on a linker: ado-ado).
Set-up: key: below the threshold = too weak to quantify, mostly under pKd 3.1 to 4

Row | pKd | Binder
28 | below the threshold | B1
29 | 3.81 | B2
30 | below the threshold | B3

What follows are binders tested against T7, GRIP1_5, Q9Y3R0 (assay: holdup assay). Conditions: plain residues with an end cap or a label only (N-terminal biotin on a linker: ado-ado).
Set-up: key: below the threshold = too weak to quantify, mostly under pKd 3.1 to 4

Row | pKd | Binder
31 | below the threshold | B1
32 | below the threshold | B2
33 | below the threshold | B3

These binders were tested against MAST1, Q9Y2H9 (assay: holdup assay). Conditions: plain residues with an end cap or a label only (N-terminal biotin on a linker: ado-ado).
Chain of MAST1, Q9Y2H9 (Q9Y2H9 962-1065): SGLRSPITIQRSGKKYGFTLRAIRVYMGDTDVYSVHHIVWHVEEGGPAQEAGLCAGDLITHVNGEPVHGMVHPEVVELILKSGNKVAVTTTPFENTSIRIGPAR
Set-up: key: below the threshold = too weak to quantify, mostly under pKd 3.1 to 4

Row | pKd | Binder
34 | below the threshold | B1
35 | 4.89 | B2
36 | 3.89 | B3

What follows are binders tested against T8, DLG3_2, Q92796 (assay: holdup assay). Conditions: plain residues with an end cap or a label only (N-terminal biotin on a linker: ado-ado).
Set-up: key: below the threshold = too weak to quantify, mostly under pKd 3.1 to 4

Row | pKd | Binder
37 | below the threshold | B1
38 | below the threshold | B2
39 | 4.42 | B3

The binders below were run against Inadl_6, Q8NI35 (assay: holdup assay). Conditions: plain residues with an end cap or a label only (N-terminal biotin on a linker: ado-ado).
Chain of Inadl_6, Q8NI35 (Q8NI35 1058-1167): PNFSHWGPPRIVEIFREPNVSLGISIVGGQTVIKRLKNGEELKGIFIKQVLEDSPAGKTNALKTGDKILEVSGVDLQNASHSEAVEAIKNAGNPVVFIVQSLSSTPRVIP
Set-up: key: below the threshold = too weak to quantify, mostly under pKd 3.1 to 4

Row | pKd | Binder
40 | below the threshold | B1
41 | below the threshold | B2
42 | below the threshold | B3

These binders were tested against T9, PDZD7_3, Q9H5P4 (assay: holdup assay). Conditions: plain residues with an end cap or a label only (N-terminal biotin on a linker: ado-ado).
Set-up: key: below the threshold = too weak to quantify, mostly under pKd 3.1 to 4

Row | pKd | Binder
43 | below the threshold | B1
44 | 4.87 | B2
45 | 3.68 | B3

Each binder was assayed against HTRA1, Q92743 (assay: holdup assay). Conditions: plain residues with an end cap or a label only (N-terminal biotin on a linker: ado-ado).
Chain of HTRA1, Q92743 (Q92743 360-477): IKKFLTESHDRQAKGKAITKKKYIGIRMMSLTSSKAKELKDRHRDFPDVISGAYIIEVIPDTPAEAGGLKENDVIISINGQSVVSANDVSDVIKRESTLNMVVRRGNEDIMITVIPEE
Set-up: key: below the threshold = too weak to quantify, mostly under pKd 3.1 to 4

Row | pKd | Binder
46 | 5.1 | B1
47 | below the threshold | B2
48 | 4.3 | B3

These binders were tested against T10, APBA3_1, O96018 (assay: holdup assay). Conditions: plain residues with an end cap or a label only (N-terminal biotin on a linker: ado-ado).
Set-up: key: below the threshold = too weak to quantify, mostly under pKd 3.1 to 4

Row | pKd | Binder
49 | below the threshold | B1
50 | below the threshold | B2
51 | below the threshold | B3

The binders below were run against GRIP2_4, Q9C0E4 (assay: holdup assay). Conditions: plain residues with an end cap or a label only (N-terminal biotin on a linker: ado-ado).
Chain of GRIP2_4, Q9C0E4 (Q9C0E4 446-548): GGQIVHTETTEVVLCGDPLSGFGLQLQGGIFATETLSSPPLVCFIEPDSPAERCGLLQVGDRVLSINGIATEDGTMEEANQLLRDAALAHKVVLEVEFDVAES
Set-up: key: below the threshold = too weak to quantify, mostly under pKd 3.1 to 4

Row | pKd | Binder
52 | below the threshold | B1
53 | below the threshold | B2
54 | below the threshold | B3

What follows are binders tested against MAGI2_5, Q86UL8 (assay: holdup assay). Conditions: plain residues with an end cap or a label only (N-terminal biotin on a linker: ado-ado).
Chain of MAGI2_5, Q86UL8 (Q86UL8 915-1017): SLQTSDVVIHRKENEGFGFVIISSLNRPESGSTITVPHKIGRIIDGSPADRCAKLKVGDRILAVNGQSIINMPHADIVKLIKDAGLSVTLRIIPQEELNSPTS
Set-up: key: below the threshold = too weak to quantify, mostly under pKd 3.1 to 4

Row | pKd | Binder
55 | below the threshold | B1
56 | below the threshold | B2
57 | below the threshold | B3

The binders below were run against MAGI2_6, Q86UL8 (assay: holdup assay). Conditions: plain residues with an end cap or a label only (N-terminal biotin on a linker: ado-ado).
Chain of MAGI2_6, Q86UL8 (Q86UL8 1141-1229): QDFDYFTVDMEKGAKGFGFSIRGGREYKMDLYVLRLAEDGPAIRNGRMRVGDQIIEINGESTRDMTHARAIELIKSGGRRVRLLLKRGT
Set-up: key: below the threshold = too weak to quantify, mostly under pKd 3.1 to 4

Row | pKd | Binder
58 | 3.67 | B1
59 | below the threshold | B2
60 | below the threshold | B3

These binders were tested against T11, DLG3_1, Q92796 (assay: holdup assay). Conditions: plain residues with an end cap or a label only (N-terminal biotin on a linker: ado-ado).
Set-up: key: below the threshold = too weak to quantify, mostly under pKd 3.1 to 4

Row | pKd | Binder
61 | below the threshold | B1
62 | below the threshold | B2
63 | below the threshold | B3

What follows are binders tested against T12, TJP3_3, O95049 (assay: holdup assay). Conditions: plain residues with an end cap or a label only (N-terminal biotin on a linker: ado-ado).
Set-up: key: below the threshold = too weak to quantify, mostly under pKd 3.1 to 4

Row | pKd | Binder
64 | 4.81 | B1
65 | below the threshold | B2
66 | below the threshold | B3

Each binder was assayed against T13, DVL3, Q92997 (assay: holdup assay). Conditions: plain residues with an end cap or a label only (N-terminal biotin on a linker: ado-ado).
Set-up: key: below the threshold = too weak to quantify, mostly under pKd 3.1 to 4

Row | pKd | Binder
67 | 4.2 | B1
68 | below the threshold | B2
69 | below the threshold | B3

The binders below were run against PDLIM1, O00151 (assay: holdup assay). Conditions: plain residues with an end cap or a label only (N-terminal biotin on a linker: ado-ado).
Chain of PDLIM1, O00151 (O00151 1-87): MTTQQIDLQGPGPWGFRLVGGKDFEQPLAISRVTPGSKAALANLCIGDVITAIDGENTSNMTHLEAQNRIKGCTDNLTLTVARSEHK
Set-up: key: below the threshold = too weak to quantify, mostly under pKd 3.1 to 4

Row | pKd | Binder
70 | below the threshold | B1
71 | below the threshold | B2
72 | below the threshold | B3
